The values that follow are results of earlier work, collected in publication PMC5803488.

Where two headings read alike, the source gives them in different places.

Usually Kd stands for the free concentration of one partner at which half of the binding sites on the other are occupied at equilibrium, for simple one-to-one binding.

The target of data set [1] is ubiquitin (UniProt P0CG48).
Data set [2] addresses ubiquitin (UniProt P0CG48). The source holds these as a separate data set.

Sequence of Vps36 (Eap45) GLUE (Q86VN1 1-138): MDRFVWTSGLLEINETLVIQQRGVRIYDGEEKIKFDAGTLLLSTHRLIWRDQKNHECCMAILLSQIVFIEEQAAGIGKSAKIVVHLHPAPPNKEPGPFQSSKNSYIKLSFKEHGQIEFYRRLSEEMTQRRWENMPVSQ
Sequence of Tsg101 UEV (Q99816 1-148): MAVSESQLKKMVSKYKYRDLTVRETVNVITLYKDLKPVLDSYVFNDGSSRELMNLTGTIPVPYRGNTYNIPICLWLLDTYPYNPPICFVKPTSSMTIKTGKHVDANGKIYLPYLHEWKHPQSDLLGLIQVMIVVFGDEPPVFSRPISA

Regarding Tsg101 UEV (from UniProt Q99816), the Kd in data set [1] was 510 µM. Consider “Vps36 (Eap45) GLUE (from UniProt Q86VN1)”, for which, in data set [2], the Kd is 330 µM.
